From doi:10.1101/2023.08.10.552651

Assays:
[1] = molecular target: sodium-dependent bicarbonate transporter SbtA (Synechocystis sp. PCC 6803); assay: cryo-EM structure
[2] = molecular target: SbtB ΔT-loop (T-loop Arg43-Ser52 truncation variant of SbtB) (Synechocystis sp. PCC 6803); assay: cryo-EM structure

stoichiometry N [1]	stoichiometry N [2]	Substance
3	–	sodium-dependent bicarbonate transporter SbtA (natural protein)
–	3	SbtB ΔT-loop (T-loop Arg43-Ser52 truncation variant of SbtB) (natural protein)
